Results as given in patent US20220017630A1 (JIANGSU SIMCERE PHARMACEUTICAL, published 2022).

Tests used:
[1] = molecular target: T1, human TNFR2 on the cell surface (CHO-TNFR2 cells; human Treg cells) (human, UniProt P20333 23-461); assay: flow cytometry, blocking of TNFα-biotin on CHO-TNFR2 cells
T1 construct: whole, on cells; The assay field of each row says which cells; also called TNFR2-CHO cell; TNFR2 on Treg cells
T1 sequence (looked up): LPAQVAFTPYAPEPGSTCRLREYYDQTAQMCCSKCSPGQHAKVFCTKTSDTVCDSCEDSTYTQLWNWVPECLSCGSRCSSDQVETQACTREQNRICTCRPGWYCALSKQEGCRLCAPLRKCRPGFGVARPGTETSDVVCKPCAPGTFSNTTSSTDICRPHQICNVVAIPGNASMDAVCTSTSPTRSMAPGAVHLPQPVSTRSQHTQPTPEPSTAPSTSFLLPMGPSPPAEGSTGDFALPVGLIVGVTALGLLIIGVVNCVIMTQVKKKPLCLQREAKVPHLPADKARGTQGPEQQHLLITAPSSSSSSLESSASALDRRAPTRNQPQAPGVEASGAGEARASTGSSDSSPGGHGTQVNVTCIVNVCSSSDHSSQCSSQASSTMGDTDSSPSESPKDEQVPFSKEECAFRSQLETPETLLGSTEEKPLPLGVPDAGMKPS

[2] = molecular target: T1, human TNFR2 on the cell surface …; assay: cell-based or functional assay
[3] = molecular target: T1, human TNFR2 on the cell surface …; assay: cell-based or functional assay; remark: listed apart in the source
[4] = molecular target: T2, human TNFR2 (Novoprotein, Catalog No. C830) (human, UniProt P20333 23-257, limits assumed); assay: blocking ELISA, TNFα-biotin on coated human TNFR2, antibody 20 nM
T2 construct: construct not described; also called TNFR2 protein
T2 sequence (looked up): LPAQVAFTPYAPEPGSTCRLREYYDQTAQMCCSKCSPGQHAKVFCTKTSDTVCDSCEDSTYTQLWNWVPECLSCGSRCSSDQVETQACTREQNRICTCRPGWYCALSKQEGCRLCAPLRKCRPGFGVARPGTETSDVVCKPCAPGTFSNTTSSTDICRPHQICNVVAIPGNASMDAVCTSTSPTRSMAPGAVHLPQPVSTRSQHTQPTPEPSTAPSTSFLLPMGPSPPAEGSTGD
Method: (§1) A microplate was pre-coated with 100 μl/well of 1 μg/ml human TNFR2 (Novoprotein, Catalog No. C830). […] After washing the plate, a Streptavidin-HRP working solution (1:10000 dilution) was added at 100 μl/well, and incubated with shaking at room temperature for 40 min. The plate was washed again, the HRP substrate TMB was added for color development, the termination solution was added to terminate the reaction, and the microplate reader was used to read the absorption value.

[5] = molecular target: T2, human TNFR2 (Novoprotein, Catalog No. …); assay: blocking ELISA, TNFα-biotin on coated human TNFR2, antibody 2 nM
Method: as §1

[6] = molecular target: T2, human TNFR2 (Novoprotein, Catalog No. …); assay: blocking ELISA, TNFα-biotin on coated human TNFR2; 002# OD / antibody OD x 100
Method: as §1

[7] = molecular target: T1, human TNFR2 on the cell surface …; assay: flow cytometry, blocking of TNFα-biotin on CHO-TNFR2 cells; AUC for 002# / AUC for antibody x 100
Method: (§2) CHO cells that stably overexpressed human TNFR2 were used for experiments. The cells were resuscitated and passaged until in good state, and the expression level of human TNFR2 on the cells was assessed by FACS. Compared to the isotype control, the assay could be carried out when the fold change of mean fluorescence intensity (MFI) was more than 100 times.
(§3) CHO-TNFR2 cells were digested, washed twice with DPBS and stained with Live/Dead (L/D) at room temperature for 20 min, and then seeded at 1×10⁵ cells/50 μl/well. […] The diluted antibodies were added 50 μl/well into wells pre-seeded with cells, and gently blown and mixed to make the final concentrations of the antibodies to 20, 6.67, 2.22, 0.74, 0.247, 0.08, 0.027 and 0 nM, respectively followed by incubation at 4° C. for 30 min. […] After washing twice with the staining buffer, 100 μl/well of PE-streptavidin was added and incubated at 4° C. for 30 min. After additional washing with the staining buffer twice, 150 μl resuspended cells was analyzed using an flow cytometry. Taking the logarithmic value of the antibody concentrations as abscissa and the corresponding MFI value as ordinate, the inhibition curve of the antibody was drawn, and the IC50 value was calculated by four parameters fitting.

[8] = molecular target: T1, human TNFR2 on the cell surface …; assay: flow cytometry, blocking of TNFα-biotin on CHO-TNFR2 cells; against 002#
Method: as §2, §3

B1: TNFR2 antibody #365 (antibody, V domains shown)
VH: EVQLQESGPGLVQPSQSLSITCTVSGFSLTSYGVHWVRQSPGKGLEWLGLIWSDGSPDYSAAFISRLSINKDNSKSQVFFKMNSLQADDTAIYYCARNDDGGDYVMDYWGQGTTVTVSS
VL: EIVLTQSPALMSASPGEKVTMTCSASSSVSYMYWYQQKPRSSPKPWIYLTSNLASGVPARFSGSGSGTSYSLTISSMEAEDAATYYCQQWTSNPLTFGAGTKLEIK
Antibody AUC [1]: 10600 | % AUC versus positive control (#52), ADCC against Treg [2]: 70.7% | proliferation inhibition (TNFα-induced Treg cell proliferation, against anti-Hel) [3]: 11% | ELISA OD of antibodies to be tested (20 nM) [4]: 0.418 OD | ELISA OD of antibodies to be tested (2 nM) [5]: 1.26 OD | % to 002# OD (2 nM) [6]: 124% | % to 002# OD (20 nM) [6]: 120% | AUC % [7]: 117% | IC50 Relative Value % [8]: 232%

B2: TNFR2 antibody #395 (antibody, V domains shown)
VH: EVQLQESGPVLVQPSQSLSITCTVSGFSLTSYSVHWVRQSPGKGLEWLGVIWSDGGTDYSAAFISRLSISKDNSKSQVFFKMNSLQADDTAIYYCARNDDGGDYAMDYWGQGTTVTVSS
VL: EIVLTQSPALMSASPGEKVTMTCSASSSVSYMYWYQQKPRSSPKPWIYLTSNLASGVPARFSGSGSGTSYSLTISSMEAEDAATYYCQQWSSNPLTFGAGTKLEIK
Antibody AUC [1]: 14900 | % AUC versus positive control (#52), ADCC against Treg [2]: 59.3% | ELISA OD of antibodies to be tested (20 nM) [4]: 0.282 OD | ELISA OD of antibodies to be tested (2 nM) [5]: 1.14 OD | % to 002# OD (2 nM) [6]: 138% | % to 002# OD (20 nM) [6]: 178% | AUC % [7]: 107% | IC50 Relative Value % [8]: 270%

B3: TNFR2 antibody #219 (antibody, V domains shown)
VH: EVQLQESGAELVRPGASVKLSCKASGYSFTNYWMNWVKQRPGQGLEWIGMIHPSDTETRLNQNFKDKATLTVDKSSSTSYMQLSSPTSEDSAVYYCARGEGLGAARSVSMDYWGQGTTVTVSS
VL: DILMTQSPSSLSASLGDRVTISCRASQDISNYLNWYQQKPDGTVKVLIYYTAILHSGVPSRFSGSGSGTDYSLTISNLEQEDIATYFCQQGNTLPWTFGGGTKLEIK
Antibody AUC [1]: 14900 | % AUC versus positive control (#52), ADCC against Treg [2]: 52.7% | proliferation inhibition (TNFα-induced Treg cell proliferation, against anti-Hel) [3]: 13.6% | ELISA OD of antibodies to be tested (20 nM) [4]: 0.28 OD | ELISA OD of antibodies to be tested (2 nM) [5]: 0.756 OD | % to 002# OD (2 nM) [6]: 89.7% | % to 002# OD (20 nM) [6]: 89% | AUC % [7]: 93.7% | IC50 Relative Value % [8]: 71.4%

B4: TNFR2 antibody #226 (antibody, V domains shown)
VH: EVQLQESGAELVRPGASVKLSCKASGYSFTNYWMNWVKQRPGQGLEWIGMIHPSDSETRLNQKFKDKATLTVDKSSSTAYMQLSSPTSEDSAVYYCARGEGLGAARSVSMDYWGQGTTVTVSS
VL: DIQMTQSPSSLSASLGDRVTISCRASQDISNYLNWYQQKPDGTVKVLIYYTALLHSGVPSRFSGSGSGTDYSLTISNLEQEDIATYFCQQGNTLPWTFGGGTKLEIK
Antibody AUC [1]: 18600 | % AUC versus positive control (#52), ADCC against Treg [2]: 69% | proliferation inhibition (TNFα-induced Treg cell proliferation, against anti-Hel) [3]: 10.3% | ELISA OD of antibodies to be tested (20 nM) [4]: 0.237 OD | ELISA OD of antibodies to be tested (2 nM) [5]: 0.709 OD | % to 002# OD (2 nM) [6]: 95.7% | % to 002# OD (20 nM) [6]: 105% | AUC % [7]: 98.7% | IC50 Relative Value % [8]: 129%

B5: TNFR2 antibody #224 (antibody, V domains shown)
VH: EVQLQESGPEIVKPGASVKLSCTASGFNNKDIYMHWVKQRPEQGLEWIGRIDPATGNTKHDPKFQDKATLSSDTSSNTAYLQFSSLTSEDTAVYYCAHSPYGDFGAMDYWGQGTTVTVSS
VL: DIQMTQSPAIMSASLGERVTMTCTASSSVSSNYLHWYQQKPGSSPKLWIYSTSNLPSGVPARFSGSGSGTSYSLTISSMEAEDAATYYCHQYHRSPWTFGGGTKLEIK
Antibody AUC [1]: 40000 | % AUC versus positive control (#52), ADCC against Treg [2]: 48.1% | ELISA OD of antibodies to be tested (20 nM) [4]: 0.123 OD | ELISA OD of antibodies to be tested (2 nM) [5]: 1.44 OD | % to 002# OD (2 nM) [6]: 101% | % to 002# OD (20 nM) [6]: 277% | AUC % [7]: 100% | IC50 Relative Value % [8]: 132%

B6: TNFR2 antibody #133 (antibody, V domains shown)
VH: EVQLQESGAELVRSGASVKLSCTASGFNIKDYYIQWVKQRPEQGLEWIGWIDPESGNTKYAPKFQDKATMTADTSSNTAYLQLSGLTSEDSAVYYCNAYYDYDGSMDYWGQGTTVTVSS
VL: DIVMTQSPLSLPVSLGDQASISCRSSQSLVHSNGNTYLHWYLQKPGQSPKLLIYKVSNRFSGVPDRFSGSGSGTDFTLKISRVETDDLGVYFCSQSTHVPTWTFGGGTKLEIK
Antibody AUC [1]: 17300 | % AUC versus positive control (#52), ADCC against Treg [2]: 46.6% | proliferation inhibition (TNFα-induced Treg cell proliferation, against anti-Hel) [3]: 9.7% | ELISA OD of antibodies to be tested (20 nM) [4]: 0.454 OD | ELISA OD of antibodies to be tested (2 nM) [5]: 2.11 OD | % to 002# OD (2 nM) [6]: 74.6% | % to 002# OD (20 nM) [6]: 110% | AUC % [7]: 99.9% | IC50 Relative Value % [8]: 150%

B7: TNFR2 antibody #125 (antibody, V domains shown)
VH: EVQLQESGGGLVQPGGSLNLSCAASGFAFSIYDLSWVRQTPEKRLEWVAYINNGGISTYYSDTVKGRFTISRDNAKNTLYLQMSSLKSEDTAMYYCVRGPFYGSANYFDYWGQGTTVTVSS
VL: DIQMTQSPASLSLSVGETVTITCRASENIYSNLAWYQQKQGKSPQLLVYDATKLAEGVPSRFSGSESGTQYSLKINSLQSEDFGTYYCQHFWVTPWTFGGGTKLEIK
Antibody AUC [1]: 37000 | % AUC versus positive control (#52), ADCC against Treg [2]: 69.6% | proliferation inhibition (TNFα-induced Treg cell proliferation, against anti-Hel) [3]: 5.2% | ELISA OD of antibodies to be tested (20 nM) [4]: 0.161 OD | ELISA OD of antibodies to be tested (2 nM) [5]: 0.599 OD | % to 002# OD (2 nM) [6]: 113% | % to 002# OD (20 nM) [6]: 154% | AUC % [7]: 121% | IC50 Relative Value % [8]: 165%

B8: TNFR2 antibody #001 (antibody, V domains shown)
VH: EVQLQESGGGLVQPGGSLNLSCAASGFAFSTYDLSWVRQTPEKRLEWVAYINNGGISTYYSDTVKGRFTISRDNAKNTLYLQMSSLKSEDTAMYYCVRGPFYGSANYFDYWGQGTTVTVSS
VL: EIVMTQSPASLSLSVGETVTITCRTSESIYSNLPWYQQKQGKSPQLLVYDATKLAEGVPSRFSGSESGTQYSLKINSLQSEDFGTYYCQHFWVTPWTFGGGTKLEIK
notes: also called antibody #1
Antibody AUC [1]: 34300 | % AUC versus positive control (#52), ADCC against Treg [2]: 80.8% | proliferation inhibition (TNFα-induced Treg cell proliferation, against anti-Hel) [3]: 17.1% | ELISA OD of antibodies to be tested (20 nM) [4]: 0.198 OD | ELISA OD of antibodies to be tested (2 nM) [5]: 0.805 OD | % to 002# OD (2 nM) [6]: 84.2% | % to 002# OD (20 nM) [6]: 126% | AUC % [7]: 88.3% | IC50 Relative Value % [8]: 65.6%
